For ten molecules, activity results are on record in patent publication US20110239319, “Use of Endonucleases for Inserting Transgenes Into Safe Harbor Loci” (published 2011).

Experiment in all cases: cell_activity; endogenous locus, 293H
One data set addresses T1, SCOH-SH42-b11-C (artificial).
T1 chain: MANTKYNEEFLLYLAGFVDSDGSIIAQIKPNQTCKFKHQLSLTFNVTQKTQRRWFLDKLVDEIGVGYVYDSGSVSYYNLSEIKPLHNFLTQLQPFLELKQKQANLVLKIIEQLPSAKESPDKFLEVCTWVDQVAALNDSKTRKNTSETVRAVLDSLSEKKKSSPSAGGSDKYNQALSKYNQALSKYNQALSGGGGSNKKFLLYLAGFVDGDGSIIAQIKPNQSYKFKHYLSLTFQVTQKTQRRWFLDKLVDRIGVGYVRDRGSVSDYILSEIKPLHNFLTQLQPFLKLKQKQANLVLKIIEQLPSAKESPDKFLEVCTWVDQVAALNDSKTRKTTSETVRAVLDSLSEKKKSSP
As for the experimental part:
(§1) Human embryonic kidney 293H cells (Invitrogen) were plated at a density of 1×10⁶ cells per 10 cm dish in complete medium (DMEM supplemented with 2 mM L-glutamine, penicillin (100 UI/ml), streptomycin (100 μg/ml), amphotericin B (Fongizone) (0.25 μg/ml) (Invitrogen-Life Science) and 10% FBS). The next day, cells were transfected with 3 μg of single-chain meganuclease expression vector using Lipofectamine 2000 transfection reagent (Invitrogen) according to the supplier's protocol. After 2 to 6 days of incubation at 37° C., cells were trypsinized and genomic DNA extraction was performed with the DNeasy blood and tissue kit (Qiagen) according to the supplier's protocol.
(§2) Human embryonic kidney 293H cells were transfected with a plasmid expressing a single-chain safe harbor meganuclease. After 2 to 6 days of incubation at 37° C., genomic DNA was isolated and PCR was used to amplify the genomic sequence surrounding the meganuclease target site. Sequences were then analyzed for the presence of insertions or deletions events (InDel) in the cleavage site of each safe harbor target.

The target of another data set is T2, SCOH-SH43-b12-C (artificial).
T2 chain: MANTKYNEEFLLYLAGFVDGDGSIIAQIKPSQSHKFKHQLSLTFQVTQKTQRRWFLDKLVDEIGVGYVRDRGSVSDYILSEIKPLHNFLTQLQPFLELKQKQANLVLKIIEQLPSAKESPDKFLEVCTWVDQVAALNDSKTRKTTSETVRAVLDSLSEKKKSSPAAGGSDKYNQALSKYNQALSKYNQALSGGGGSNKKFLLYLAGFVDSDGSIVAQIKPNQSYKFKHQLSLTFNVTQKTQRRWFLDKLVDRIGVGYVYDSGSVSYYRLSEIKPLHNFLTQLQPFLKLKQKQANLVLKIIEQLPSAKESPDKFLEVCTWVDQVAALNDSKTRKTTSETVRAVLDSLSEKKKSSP
On the procedure: as §1, §2

The next data set deals with T3, SCOH-SH3-b1-C (artificial).
T3 chain: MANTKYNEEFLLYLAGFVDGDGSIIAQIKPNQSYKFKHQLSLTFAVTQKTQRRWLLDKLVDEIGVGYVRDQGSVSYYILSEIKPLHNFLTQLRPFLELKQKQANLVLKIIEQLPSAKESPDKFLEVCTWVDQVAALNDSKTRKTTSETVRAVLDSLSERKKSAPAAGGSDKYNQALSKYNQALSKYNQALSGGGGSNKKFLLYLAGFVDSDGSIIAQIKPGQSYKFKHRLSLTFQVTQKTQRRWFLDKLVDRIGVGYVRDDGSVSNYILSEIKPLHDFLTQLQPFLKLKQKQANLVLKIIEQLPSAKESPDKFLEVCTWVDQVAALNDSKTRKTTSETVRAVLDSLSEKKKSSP
On the procedure: as §1, §2

A further data set has as its target T4, SCOH-SH4-b1-C (artificial).
T4 chain: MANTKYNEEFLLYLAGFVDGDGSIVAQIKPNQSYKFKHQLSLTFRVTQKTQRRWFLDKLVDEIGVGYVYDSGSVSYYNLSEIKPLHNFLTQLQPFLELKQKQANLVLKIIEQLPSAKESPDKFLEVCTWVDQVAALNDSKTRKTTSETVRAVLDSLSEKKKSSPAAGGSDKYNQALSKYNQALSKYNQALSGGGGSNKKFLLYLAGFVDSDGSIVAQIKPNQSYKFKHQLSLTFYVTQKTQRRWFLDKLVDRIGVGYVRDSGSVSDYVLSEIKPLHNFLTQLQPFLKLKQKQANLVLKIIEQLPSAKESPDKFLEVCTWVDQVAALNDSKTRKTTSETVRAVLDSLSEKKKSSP
As for the experimental part: as §1, §2

For a further data set, the target named is T5, SCOH-SH19 (artificial).
T5 chain: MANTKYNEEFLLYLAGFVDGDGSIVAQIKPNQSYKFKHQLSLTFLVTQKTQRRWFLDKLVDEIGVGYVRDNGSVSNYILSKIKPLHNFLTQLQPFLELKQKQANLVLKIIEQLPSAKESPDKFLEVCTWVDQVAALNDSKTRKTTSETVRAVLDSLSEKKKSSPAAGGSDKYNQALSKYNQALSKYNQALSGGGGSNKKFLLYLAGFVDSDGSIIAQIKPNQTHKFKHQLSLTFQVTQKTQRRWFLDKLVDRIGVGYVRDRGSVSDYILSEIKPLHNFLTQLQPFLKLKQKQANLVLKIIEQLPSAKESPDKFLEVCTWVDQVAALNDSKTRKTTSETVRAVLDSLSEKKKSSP
On the procedure: as §1, §2

A further data set has as its target T6, SCOH-SH31.2 (artificial).
T6 chain: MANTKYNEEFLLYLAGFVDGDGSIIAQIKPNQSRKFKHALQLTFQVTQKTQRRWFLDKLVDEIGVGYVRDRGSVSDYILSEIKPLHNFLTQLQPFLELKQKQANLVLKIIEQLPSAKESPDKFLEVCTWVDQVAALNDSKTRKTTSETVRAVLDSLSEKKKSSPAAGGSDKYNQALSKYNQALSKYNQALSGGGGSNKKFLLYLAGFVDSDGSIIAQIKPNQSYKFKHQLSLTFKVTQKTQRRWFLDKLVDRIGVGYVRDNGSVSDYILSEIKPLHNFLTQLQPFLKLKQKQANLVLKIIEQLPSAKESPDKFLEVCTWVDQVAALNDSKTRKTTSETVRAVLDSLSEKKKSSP
On the procedure: as §1, §2

The next data set deals with T7, SCOH-SH41-b11-C (artificial).
T7 chain: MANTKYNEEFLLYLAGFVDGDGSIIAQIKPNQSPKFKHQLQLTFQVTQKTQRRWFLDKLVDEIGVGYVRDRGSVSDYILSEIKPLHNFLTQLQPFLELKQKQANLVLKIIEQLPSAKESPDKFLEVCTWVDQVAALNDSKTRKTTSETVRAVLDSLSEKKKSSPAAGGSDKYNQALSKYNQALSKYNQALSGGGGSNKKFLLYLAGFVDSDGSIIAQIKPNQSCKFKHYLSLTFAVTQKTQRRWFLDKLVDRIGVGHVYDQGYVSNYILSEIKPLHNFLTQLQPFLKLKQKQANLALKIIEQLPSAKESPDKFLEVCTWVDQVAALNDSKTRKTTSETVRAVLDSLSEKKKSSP
On the procedure:
as §1, §2

A further data set concerns the target T8, SCOH-SH44-b11-C (artificial).
T8 chain: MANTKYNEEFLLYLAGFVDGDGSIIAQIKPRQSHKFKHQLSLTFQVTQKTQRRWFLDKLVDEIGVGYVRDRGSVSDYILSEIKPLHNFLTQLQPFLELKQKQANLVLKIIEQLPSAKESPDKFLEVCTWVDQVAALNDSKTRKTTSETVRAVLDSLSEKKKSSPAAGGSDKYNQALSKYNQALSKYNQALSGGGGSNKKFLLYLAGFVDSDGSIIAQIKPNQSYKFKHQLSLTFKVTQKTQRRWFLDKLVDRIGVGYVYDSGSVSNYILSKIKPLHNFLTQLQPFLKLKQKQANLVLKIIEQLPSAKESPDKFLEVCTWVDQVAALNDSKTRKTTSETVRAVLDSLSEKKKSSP
As for the experimental part: as §1, §2

A further data set has as its target T9, SCOH-SH39-b11-C (artificial).
T9 chain: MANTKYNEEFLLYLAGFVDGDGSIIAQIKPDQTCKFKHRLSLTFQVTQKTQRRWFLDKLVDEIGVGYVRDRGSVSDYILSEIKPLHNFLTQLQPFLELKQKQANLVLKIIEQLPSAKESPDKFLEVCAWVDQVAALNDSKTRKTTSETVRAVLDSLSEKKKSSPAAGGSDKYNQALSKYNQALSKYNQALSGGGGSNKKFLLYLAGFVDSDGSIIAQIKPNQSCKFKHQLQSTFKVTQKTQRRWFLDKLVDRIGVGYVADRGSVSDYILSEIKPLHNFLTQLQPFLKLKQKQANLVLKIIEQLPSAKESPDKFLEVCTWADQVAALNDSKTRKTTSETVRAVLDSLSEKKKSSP
As for the experimental part: as §1, §2

Another data set deals with T10, SCOH-SH52-b12-C (artificial).
T10 chain: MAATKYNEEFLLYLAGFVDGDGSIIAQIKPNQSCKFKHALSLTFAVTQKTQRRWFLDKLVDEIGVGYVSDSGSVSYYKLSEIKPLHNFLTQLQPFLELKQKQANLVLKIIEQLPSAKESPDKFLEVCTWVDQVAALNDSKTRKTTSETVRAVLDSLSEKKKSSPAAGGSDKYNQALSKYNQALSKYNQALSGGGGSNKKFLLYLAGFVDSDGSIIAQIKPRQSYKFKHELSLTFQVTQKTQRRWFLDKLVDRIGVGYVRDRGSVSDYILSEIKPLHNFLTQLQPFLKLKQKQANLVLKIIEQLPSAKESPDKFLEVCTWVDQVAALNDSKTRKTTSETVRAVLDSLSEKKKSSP
As for the experimental part: as §1, §2

B1: SH42 target (dsDNA)
DNA 1: TATATCCCATGTGAGACATGCAGT
DNA 2: ACTGCATGTCTCACATGGGATATA
B1 displayed an activity with SCOH-SH42-b11-C of 0.7 % InDels.

B2: SH43 target (dsDNA)
DNA 1: TAAATACGTCTTACATTATTTTGC
DNA 2: GCAAAATAATGTAAGACGTATTTA
Take B2: the activity with SCOH-SH43-b12-C stood at 0.4 % InDels.

B3: SH3 target (dsDNA)
DNA 1: CCAATACAAGGTACAAAGTCCTGA
DNA 2: TCAGGACTTTGTACCTTGTATTGG
In the data set with SCOH-SH3-b1-C, B3 showed an activity of 0.8 % InDels.

B4: SH4 target (dsDNA)
DNA 1: TTAAAACACTGTACACCATTTTGA
DNA 2: TCAAAATGGTGTACAGTGTTTTAA
As to B4, the activity in the data set with SCOH-SH4-b1-C is 0.2 % InDels.

B5: SH19 target (dsDNA)
DNA 1: GCAAAACATTGTAAGACATGCCAA
DNA 2: TTGGCATGTCTTACAATGTTTTGC
Take B5: in the data set with SCOH-SH19, the activity amounted to 0.9 % InDels.

B6: SH31 target (dsDNA)
DNA 1: TTGTAATGTCTTACAAGGTTTTAA
DNA 2: TTAAAACCTTGTAAGACATTACAA
The molecule B6 showed an activity with SCOH-SH31.2 of 5 % InDels.

B7: SH41 target (dsDNA)
DNA 1: CCTCTCTTAGGTGAGACGGTACAT
DNA 2: ATGTACCGTCTCACCTAAGAGAGG
As for B7, in the data set with SCOH-SH41-b11-C, the activity stood at 0.4 % InDels.

B8: SH44 target (dsDNA)
DNA 1: AAGAAATGTCTCACAGAATTTTAC
DNA 2: GTAAAATTCTGTGAGACATTTCTT
Molecule B8 returned an activity with SCOH-SH44-b11-C of 3.6 % InDels.

B9: SH39 target (dsDNA)
DNA 1: TCCTTCTGTCTTAAGAGATTTATC
DNA 2: GATAAATCTCTTAAGACAGAAGGA
In turn, B9 came in with an activity with SCOH-SH39-b11-C of 1.5 % InDels.

B10: SH52 target (dsDNA)
DNA 1: CTCCACTGTCTTACCTAATCCAGC
DNA 2: GCTGGATTAGGTAAGACAGTGGAG
On to B10, for which the activity with SCOH-SH52-b12-C was found to be 3.2 % InDels.
